Measurements from PMC7588467.

Target: OP protein cage
Test: cryo-EM structure; OP cages empty, with SDS (800 equiv.) or with SDS:CS, in TSEC buffer; octahedral symmetry imposed; rigid-body fit of the OP crystal structure (PDB 6FDB)

Substance: OP protein cage
- stoichiometry N (monomers per cage): 24
